Target: endogenous human tissue factor on MDA-MB-231 breast cancer cells (Homo sapiens (MDA-MB-231 cells), UniProt P13726)
Test: flow cytometry on cells

Sequence of endogenous human tissue factor on MDA-MB-231 breast cancer cells (P13726 33-295): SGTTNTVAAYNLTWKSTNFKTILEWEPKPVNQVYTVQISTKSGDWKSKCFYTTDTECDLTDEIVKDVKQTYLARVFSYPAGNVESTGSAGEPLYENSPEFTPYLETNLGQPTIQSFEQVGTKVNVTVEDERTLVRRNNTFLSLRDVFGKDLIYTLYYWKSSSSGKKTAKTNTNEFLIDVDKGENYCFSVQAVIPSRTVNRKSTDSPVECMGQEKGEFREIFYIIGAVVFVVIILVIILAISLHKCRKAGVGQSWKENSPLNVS

B1: chimeric mouse/human version of 10H10 mAb (antibody, V domains shown)
VH: QVHLQQSGAELMKPGASVKISCKASGYTFITYWIEWVKQRPGHGLEWIGDILPGSGSTNYNENFKGKATFTADSSSNTAYMQLSSLTSEDSAVYYCARSGYYGNSGFAYWGQGTLVTVSA
VL: DIVMTQSPSSLTVTAGEKVTMSCKSSQSLLSSGNQKNYLTWYQQIPGQPPKLLIYWASTRESGVPDRFTGSGSGTDFTLTINSVQAEDLAVYYCQNDYTYPLTFGAGTKLELK
cell binding (% to 10H10): 100%

From publication PMC5825201 (mAbs, 2018)
